# From article PMC9482650, “Quantitative fragmentomics allow affinity mapping of interactomes” (Nature Communications, 2022)
# B1: MYOZ1, Q9NP98 (peptide)
# chain: IPLDGETEEL
# B2: JAG1, P78504 (peptide)
# chain: QSLNRMEYIV
# B3: EPHB3, P54753 (peptide)
# chain: QMNQTLPVQV
# B4: SLC22A12, Q96S37 (peptide)
# chain: GNSVLKSTQF
# B5: TMEM151B, Q8IW70 (peptide)
# chain: RHGSCVETSL
# Molecular target: T1, SHANK1, Q9Y566
# T1 sequence (Q9Y566 658-767, limits assumed, looked up): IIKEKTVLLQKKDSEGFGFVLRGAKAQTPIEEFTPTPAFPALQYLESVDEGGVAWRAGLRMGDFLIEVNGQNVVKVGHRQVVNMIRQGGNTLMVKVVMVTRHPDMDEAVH
# Experiment: holdup assay
# Parameters: key: below the threshold = too weak to quantify, mostly under pKd 3.1 to 4
# Conditions: plain residues with an end cap or a label only (N-terminal biotin on a linker: ado-ado)
row,Binder,pKd
1,B1,below the threshold
2,B2,below the threshold
3,B3,3.54
4,B4,4.96
5,B5,4.64

# Molecular target: LDB3, O75112
# Experiment: holdup assay
# Parameters: key: below the threshold = too weak to quantify, mostly under pKd 3.1 to 4
# Conditions: plain residues with an end cap or a label only (N-terminal biotin on a linker: ado-ado)
# Sequence of LDB3, O75112 (O75112 1-94): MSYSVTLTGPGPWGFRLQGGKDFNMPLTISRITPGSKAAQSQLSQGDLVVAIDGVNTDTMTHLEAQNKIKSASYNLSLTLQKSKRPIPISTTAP
row,Binder,pKd
1,B1,4.46
2,B2,below the threshold
3,B3,below the threshold
4,B4,below the threshold
5,B5,below the threshold

# Molecular target: NHERF4_1, Q86UT5-2
# Experiment: holdup assay
# Parameters: key: below the threshold = too weak to quantify, mostly under pKd 3.1 to 4
# Conditions: plain residues with an end cap or a label only (N-terminal biotin on a linker: ado-ado)
# Sequence of NHERF4_1, Q86UT5-2 (Q86UT5 other isoform, or with tags, fused parts or gaps): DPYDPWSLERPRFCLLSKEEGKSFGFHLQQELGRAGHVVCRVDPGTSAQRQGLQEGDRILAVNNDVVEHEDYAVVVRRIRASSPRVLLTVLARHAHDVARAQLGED
row,Binder,pKd
1,B1,4.2
2,B2,below the threshold
3,B3,below the threshold
4,B4,4.1
5,B5,4.51

# Molecular target: T2, LNX2_3, Q8N448
# T2 sequence (Q8N448 463-564, limits assumed, looked up): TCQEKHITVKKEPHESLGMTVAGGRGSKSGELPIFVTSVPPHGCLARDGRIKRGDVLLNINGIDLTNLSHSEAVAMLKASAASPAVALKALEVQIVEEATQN
# Experiment: holdup assay
# Parameters: key: below the threshold = too weak to quantify, mostly under pKd 3.1 to 4
# Conditions: plain residues with an end cap or a label only (N-terminal biotin on a linker: ado-ado)
row,Binder,pKd
1,B1,below the threshold
2,B2,below the threshold
3,B3,below the threshold
4,B4,below the threshold
5,B5,below the threshold

# Molecular target: PTPN3, P26045
# Experiment: holdup assay
# Parameters: key: below the threshold = too weak to quantify, mostly under pKd 3.1 to 4
# Conditions: plain residues with an end cap or a label only (N-terminal biotin on a linker: ado-ado)
# Sequence of PTPN3, P26045 (P26045 505-587): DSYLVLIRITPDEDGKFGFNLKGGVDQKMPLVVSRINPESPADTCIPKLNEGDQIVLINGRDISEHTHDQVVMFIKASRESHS
row,Binder,pKd
1,B1,4.04
2,B2,below the threshold
3,B3,3.97
4,B4,4.59
5,B5,5

# Molecular target: Inadl_2, Q8NI35
# Experiment: holdup assay
# Parameters: key: below the threshold = too weak to quantify, mostly under pKd 3.1 to 4
# Conditions: plain residues with an end cap or a label only (N-terminal biotin on a linker: ado-ado)
# Sequence of Inadl_2, Q8NI35 (Q8NI35 238-335): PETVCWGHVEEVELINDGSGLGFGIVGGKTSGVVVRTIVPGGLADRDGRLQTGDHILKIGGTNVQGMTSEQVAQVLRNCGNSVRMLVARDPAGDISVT
row,Binder,pKd
1,B1,below the threshold
2,B2,4.77
3,B3,below the threshold
4,B4,below the threshold
5,B5,below the threshold

# Molecular target: MAGI3_2, Q5TCQ9
# Experiment: holdup assay
# Parameters: key: below the threshold = too weak to quantify, mostly under pKd 3.1 to 4
# Conditions: plain residues with an end cap or a label only (N-terminal biotin on a linker: ado-ado)
# Sequence of MAGI3_2, Q5TCQ9 (Q5TCQ9 398-503): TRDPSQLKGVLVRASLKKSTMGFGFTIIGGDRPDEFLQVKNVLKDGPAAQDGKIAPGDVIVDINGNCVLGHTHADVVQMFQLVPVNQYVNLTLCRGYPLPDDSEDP
row,Binder,pKd
1,B1,below the threshold
2,B2,4.73
3,B3,below the threshold
4,B4,below the threshold
5,B5,4.06

# Molecular target: AHNAK1, Q09666
# Experiment: holdup assay
# Parameters: key: below the threshold = too weak to quantify, mostly under pKd 3.1 to 4
# Conditions: plain residues with an end cap or a label only (N-terminal biotin on a linker: ado-ado)
# Sequence of AHNAK1, Q09666 (Q09666 4-100): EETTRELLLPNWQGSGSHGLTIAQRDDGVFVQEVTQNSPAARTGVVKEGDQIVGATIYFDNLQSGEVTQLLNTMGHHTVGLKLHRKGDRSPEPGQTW
row,Binder,pKd
1,B1,below the threshold
2,B2,below the threshold
3,B3,below the threshold
4,B4,below the threshold
5,B5,below the threshold

# Molecular target: T3, DLG3_3, Q92796
# T3 sequence (Q92796 374-475, limits assumed, looked up): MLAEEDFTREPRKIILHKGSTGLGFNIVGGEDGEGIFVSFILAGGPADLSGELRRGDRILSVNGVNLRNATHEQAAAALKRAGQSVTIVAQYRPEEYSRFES
# Experiment: holdup assay
# Parameters: key: below the threshold = too weak to quantify, mostly under pKd 3.1 to 4
# Conditions: plain residues with an end cap or a label only (N-terminal biotin on a linker: ado-ado)
row,Binder,pKd
1,B1,below the threshold
2,B2,below the threshold
3,B3,3.56
4,B4,below the threshold
5,B5,4.2

# Molecular target: GRID2IP_1, A4D2P6
# Experiment: holdup assay
# Parameters: key: below the threshold = too weak to quantify, mostly under pKd 3.1 to 4
# Conditions: plain residues with an end cap or a label only (N-terminal biotin on a linker: ado-ado)
# Sequence of GRID2IP_1, A4D2P6 (A4D2P6 1-87): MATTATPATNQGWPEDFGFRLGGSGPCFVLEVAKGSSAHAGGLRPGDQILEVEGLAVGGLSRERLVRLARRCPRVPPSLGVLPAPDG
row,Binder,pKd
1,B1,below the threshold
2,B2,below the threshold
3,B3,below the threshold
4,B4,below the threshold
5,B5,below the threshold

# Molecular target: MAGI2_3, Q86UL8
# Experiment: holdup assay
# Parameters: key: below the threshold = too weak to quantify, mostly under pKd 3.1 to 4
# Conditions: plain residues with an end cap or a label only (N-terminal biotin on a linker: ado-ado)
# Sequence of MAGI2_3, Q86UL8 (Q86UL8 600-682): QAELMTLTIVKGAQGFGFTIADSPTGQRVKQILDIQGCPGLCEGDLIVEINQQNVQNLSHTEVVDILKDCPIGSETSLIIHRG
row,Binder,pKd
1,B1,below the threshold
2,B2,below the threshold
3,B3,3.64
4,B4,3.61
5,B5,3.5

# Molecular target: NHERF4_2, Q86UT5
# Experiment: holdup assay
# Parameters: key: below the threshold = too weak to quantify, mostly under pKd 3.1 to 4
# Conditions: plain residues with an end cap or a label only (N-terminal biotin on a linker: ado-ado)
# Sequence of NHERF4_2, Q86UT5 (Q86UT5 220-308): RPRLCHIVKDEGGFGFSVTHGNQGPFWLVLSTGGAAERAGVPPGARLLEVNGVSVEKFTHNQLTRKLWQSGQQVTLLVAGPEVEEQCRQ
row,Binder,pKd
1,B1,below the threshold
2,B2,below the threshold
3,B3,3.52
4,B4,below the threshold
5,B5,below the threshold

# Molecular target: Inadl_8, Q8NI35
# Experiment: holdup assay
# Parameters: key: below the threshold = too weak to quantify, mostly under pKd 3.1 to 4
# Conditions: plain residues with an end cap or a label only (N-terminal biotin on a linker: ado-ado)
# Sequence of Inadl_8, Q8NI35 (Q8NI35 1425-1530): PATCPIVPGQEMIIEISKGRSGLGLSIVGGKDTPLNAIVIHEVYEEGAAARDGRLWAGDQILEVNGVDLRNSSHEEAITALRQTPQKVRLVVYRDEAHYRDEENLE
row,Binder,pKd
1,B1,below the threshold
2,B2,below the threshold
3,B3,3.55
4,B4,below the threshold
5,B5,below the threshold

# Molecular target: MAGI2_4, Q86UL8
# Experiment: holdup assay
# Parameters: key: below the threshold = too weak to quantify, mostly under pKd 3.1 to 4
# Conditions: plain residues with an end cap or a label only (N-terminal biotin on a linker: ado-ado)
# Sequence of MAGI2_4, Q86UL8 (Q86UL8 772-865): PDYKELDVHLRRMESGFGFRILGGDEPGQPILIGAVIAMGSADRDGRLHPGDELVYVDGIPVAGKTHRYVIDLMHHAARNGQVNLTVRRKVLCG
row,Binder,pKd
1,B1,below the threshold
2,B2,3.87
3,B3,3.7
4,B4,3.79
5,B5,below the threshold

# Molecular target: Inadl_4, Q8NI35
# Experiment: holdup assay
# Parameters: key: below the threshold = too weak to quantify, mostly under pKd 3.1 to 4
# Conditions: plain residues with an end cap or a label only (N-terminal biotin on a linker: ado-ado)
# Sequence of Inadl_4, Q8NI35 (Q8NI35 547-651): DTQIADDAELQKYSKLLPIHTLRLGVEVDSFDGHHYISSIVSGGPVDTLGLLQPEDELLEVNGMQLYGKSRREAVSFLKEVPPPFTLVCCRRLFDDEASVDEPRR
row,Binder,pKd
1,B1,below the threshold
2,B2,below the threshold
3,B3,below the threshold
4,B4,below the threshold
5,B5,below the threshold

# Molecular target: T4, ARHGAP21, Q5T5U3
# T4 sequence (Q5T5U3 45-169, limits assumed, looked up): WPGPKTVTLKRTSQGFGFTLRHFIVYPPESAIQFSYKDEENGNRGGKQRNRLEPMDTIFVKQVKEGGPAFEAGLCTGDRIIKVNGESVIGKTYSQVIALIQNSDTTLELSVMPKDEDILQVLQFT
# Experiment: holdup assay
# Parameters: key: below the threshold = too weak to quantify, mostly under pKd 3.1 to 4
# Conditions: plain residues with an end cap or a label only (N-terminal biotin on a linker: ado-ado)
row,Binder,pKd
1,B1,below the threshold
2,B2,below the threshold
3,B3,4
4,B4,below the threshold
5,B5,4.17

# Molecular target: T5, RAPGEF6, Q8TEU7
# T5 sequence (Q8TEU7 525-625, limits assumed, looked up): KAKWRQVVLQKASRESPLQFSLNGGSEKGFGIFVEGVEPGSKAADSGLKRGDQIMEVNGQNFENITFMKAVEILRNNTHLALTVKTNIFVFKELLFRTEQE
# Experiment: holdup assay
# Parameters: key: below the threshold = too weak to quantify, mostly under pKd 3.1 to 4
# Conditions: plain residues with an end cap or a label only (N-terminal biotin on a linker: ado-ado)
row,Binder,pKd
1,B1,below the threshold
2,B2,below the threshold
3,B3,below the threshold
4,B4,below the threshold
5,B5,below the threshold

# Molecular target: T6, APBA1_1, Q02410
# T6 sequence (Q02410 651-752, limits assumed, looked up): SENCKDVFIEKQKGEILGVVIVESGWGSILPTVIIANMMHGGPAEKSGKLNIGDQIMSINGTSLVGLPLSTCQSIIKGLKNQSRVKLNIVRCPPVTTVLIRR
# Experiment: holdup assay
# Parameters: key: below the threshold = too weak to quantify, mostly under pKd 3.1 to 4
# Conditions: plain residues with an end cap or a label only (N-terminal biotin on a linker: ado-ado)
row,Binder,pKd
1,B1,below the threshold
2,B2,below the threshold
3,B3,below the threshold
4,B4,below the threshold
5,B5,below the threshold

# Molecular target: FRMPD2_1, Q68DX3
# Experiment: holdup assay
# Parameters: key: below the threshold = too weak to quantify, mostly under pKd 3.1 to 4
# Conditions: plain residues with an end cap or a label only (N-terminal biotin on a linker: ado-ado)
# Sequence of FRMPD2_1, Q68DX3 (Q68DX3 770-861): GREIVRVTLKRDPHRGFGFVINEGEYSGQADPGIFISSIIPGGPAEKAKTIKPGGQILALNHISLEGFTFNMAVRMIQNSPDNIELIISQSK
row,Binder,pKd
1,B1,below the threshold
2,B2,3.89
3,B3,4.36
4,B4,below the threshold
5,B5,below the threshold

# Molecular target: T7, TJP3_3, O95049
# T7 sequence (O95049 375-456, limits assumed, looked up): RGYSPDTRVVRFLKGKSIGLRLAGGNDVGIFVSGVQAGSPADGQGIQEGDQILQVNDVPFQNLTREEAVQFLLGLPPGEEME
# Experiment: holdup assay
# Parameters: key: below the threshold = too weak to quantify, mostly under pKd 3.1 to 4
# Conditions: plain residues with an end cap or a label only (N-terminal biotin on a linker: ado-ado)
row,Binder,pKd
1,B1,below the threshold
2,B2,below the threshold
3,B3,below the threshold
4,B4,below the threshold
5,B5,below the threshold

# Molecular target: T8, LIN7C, Q9NUP9
# T8 sequence (Q9NUP9 88-185, limits assumed, looked up): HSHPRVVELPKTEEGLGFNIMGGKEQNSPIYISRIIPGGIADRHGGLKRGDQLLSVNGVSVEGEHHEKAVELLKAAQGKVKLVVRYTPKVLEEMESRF
# Experiment: holdup assay
# Parameters: key: below the threshold = too weak to quantify, mostly under pKd 3.1 to 4
# Conditions: plain residues with an end cap or a label only (N-terminal biotin on a linker: ado-ado)
row,Binder,pKd
1,B1,below the threshold
2,B2,3.53
3,B3,below the threshold
4,B4,4.12
5,B5,4.43

# Molecular target: T9, LRRC7, Q96NW7
# T9 sequence (Q96NW7 1440-1537, limits assumed, looked up): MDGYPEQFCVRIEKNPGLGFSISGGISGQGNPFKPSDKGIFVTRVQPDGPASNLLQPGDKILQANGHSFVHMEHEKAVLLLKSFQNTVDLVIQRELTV
# Experiment: holdup assay
# Parameters: key: below the threshold = too weak to quantify, mostly under pKd 3.1 to 4
# Conditions: plain residues with an end cap or a label only (N-terminal biotin on a linker: ado-ado)
row,Binder,pKd
1,B1,below the threshold
2,B2,below the threshold
3,B3,below the threshold
4,B4,below the threshold
5,B5,4.08

# Molecular target: PARD3_3, Q8TEW0
# Experiment: holdup assay
# Parameters: key: below the threshold = too weak to quantify, mostly under pKd 3.1 to 4
# Conditions: plain residues with an end cap or a label only (N-terminal biotin on a linker: ado-ado)
# Sequence of PARD3_3, Q8TEW0 (Q8TEW0 582-685): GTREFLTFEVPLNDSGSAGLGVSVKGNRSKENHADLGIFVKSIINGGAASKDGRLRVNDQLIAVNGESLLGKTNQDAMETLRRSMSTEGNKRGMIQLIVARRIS
row,Binder,pKd
1,B1,3.97
2,B2,4.37
3,B3,3.51
4,B4,below the threshold
5,B5,3.59

# Molecular target: T10, FRMPD1, Q5SYB0
# T10 sequence (Q5SYB0 52-145, limits assumed, looked up): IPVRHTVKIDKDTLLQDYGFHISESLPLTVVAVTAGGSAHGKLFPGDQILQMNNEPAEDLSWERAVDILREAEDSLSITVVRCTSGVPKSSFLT
# Experiment: holdup assay
# Parameters: key: below the threshold = too weak to quantify, mostly under pKd 3.1 to 4
# Conditions: plain residues with an end cap or a label only (N-terminal biotin on a linker: ado-ado)
row,Binder,pKd
1,B1,below the threshold
2,B2,below the threshold
3,B3,below the threshold
4,B4,below the threshold
5,B5,below the threshold

# Molecular target: DLG2_2, Q15700
# Experiment: holdup assay
# Parameters: key: below the threshold = too weak to quantify, mostly under pKd 3.1 to 4
# Conditions: plain residues with an end cap or a label only (N-terminal biotin on a linker: ado-ado)
# Sequence of DLG2_2, Q15700 (Q15700 189-283): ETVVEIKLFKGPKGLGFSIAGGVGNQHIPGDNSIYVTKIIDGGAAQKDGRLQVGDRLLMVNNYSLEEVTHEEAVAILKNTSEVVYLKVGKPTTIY
row,Binder,pKd
1,B1,below the threshold
2,B2,below the threshold
3,B3,below the threshold
4,B4,below the threshold
5,B5,4.32

# Molecular target: PDLIM1, O00151
# Experiment: holdup assay
# Parameters: key: below the threshold = too weak to quantify, mostly under pKd 3.1 to 4
# Conditions: plain residues with an end cap or a label only (N-terminal biotin on a linker: ado-ado)
# Sequence of PDLIM1, O00151 (O00151 1-87): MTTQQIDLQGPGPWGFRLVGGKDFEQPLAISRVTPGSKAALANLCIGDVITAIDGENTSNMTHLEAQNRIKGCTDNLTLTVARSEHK
row,Binder,pKd
1,B1,4.18
2,B2,below the threshold
3,B3,below the threshold
4,B4,below the threshold
5,B5,3.65

# Molecular target: T11, APBA3_1, O96018
# T11 sequence (O96018 389-490, limits assumed, looked up): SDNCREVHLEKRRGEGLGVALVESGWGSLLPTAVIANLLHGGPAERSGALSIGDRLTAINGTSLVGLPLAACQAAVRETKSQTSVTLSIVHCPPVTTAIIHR
# Experiment: holdup assay
# Parameters: key: below the threshold = too weak to quantify, mostly under pKd 3.1 to 4
# Conditions: plain residues with an end cap or a label only (N-terminal biotin on a linker: ado-ado)
row,Binder,pKd
1,B1,below the threshold
2,B2,below the threshold
3,B3,below the threshold
4,B4,below the threshold
5,B5,below the threshold
